Km, kcat and kcat/Km data for three proteins are collected here from publication PMC10638397, “Engineering sulfonate group donor regeneration systems to boost biosynthesis of sulfated compounds” (Nature Communications, 2023).

Substrate in series [1]: Nc1ncnc2c1ncn2[C@@H]1O[C@H](COP(=O)(O)OS(=O)(=O)O)[C@@H](OP(=O)(O)O)[C@H]1O
Kind of series: sulfotransferase kinetics, HPLC-MS. In kind it is biochemical, Mycolicibacterium smegmatis. To be noted: sulfonate acceptor trehalose, Mg2+, pH 7.5, 35 °C (general assay).
From the text: sulfotransferase kinetics, HPLC-MS on trehalose sulfotransferase (Stf0)

Substrate in series [2]: Nc1ncnc2c1ncn2[C@@H]1O[C@H](COP(=O)(O)OS(=O)(=O)O)[C@@H](OP(=O)(O)O)[C@H]1O
Kind of series: sulfotransferase kinetics, HPLC-MS. To be noted: Mg2+, pH 7.5, 35 °C (general assay), acceptor not given. In kind it is biochemical, Mus musculus.

Substrate in series [3]: Nc1ncnc2c1ncn2[C@@H]1O[C@H](COP(=O)(O)OS(=O)(=O)O)[C@@H](OP(=O)(O)O)[C@H]1O
Kind of series: sulfotransferase kinetics, HPLC-MS. To be noted: Mg2+, pH 7.5, 35 °C (general assay), acceptor not given. In kind it is biochemical, Rattus norvegicus. From the text:
sulfotransferase kinetics, HPLC-MS on aryl sulfotransferase IV (AST IV)

Substrate in the series “purified protein”: Nc1ncnc2c1ncn2[C@@H]1O[C@H](COP(=O)(O)OS(=O)(=O)O)[C@@H](O)[C@H]1O
Kind of series: purified protein. To be noted: Mg2+, pH 7.5, 35 °C (general assay), acceptor not given.

B1: trehalose sulfotransferase (Stf0) (Mycolicibacterium smegmatis MC2 155) (protein)
chain: MSDHPTAYLVLASQRSGSTLLVESLRATGVAGEPQEFFQYLPNTSMSPQPREWFADVEDQSILRLLDPLIEGKPDLAPATIWRDYIQTVGRTPNGVWGGKLMWNQTPLLVQRAKDLPDRSGSGLLSAIRDVVGSDPVLIHIHRPDVVSQAVSFWRAVQTRVWRGRPDPVRDARAEYHAGAIAHVITMLRAQEEGWRAWFTEENVEPIDVDYPYLWRNLTEVVGTVLEALGQDPRLAPKPVLERQADQRSDEWVERYRRDAQRDGLPL
A word on the Km: it is the substrate concentration at which the rate is half of its maximum. The kcat is the number of substrate molecules converted per active site and unit of time at saturation. A word on the kcat/Km: it is the turnover number divided by the Michaelis constant. Consider B1, for which, in series [1], the Km was found to be 820 ± 60 µM, the kcat was found to be 0.00988 ± 0.00025 s⁻¹ and the kcat/Km came to 12.1 M⁻¹ s⁻¹.

B2: estrogen sulfotransferase (EST) (Mus musculus) (protein)
chain: METSMPEYYEVFGEFRGVLMDKRFTKYWEDVEMFLARPDDLVIATYPKSGTTWISEVVYMIYKEGDVEKCKEDAIFNRIPYLECRNEDLINGIKQLKEKESPRIVKTHLPPKLLPASFWEKNCKMIYLCRNAKDVAVSYYYFLLMITSYPNPKSFSEFVEKFMQGQVPYGSWYDHVKAWWEKSKNSRVLFMFYEDMKEDIRREVVKLIEFLERKPSAELVDRIIQHTSFQEMKNNPSTNYTMMPEEMMNQKVSPFMRKGIIGDWKNHFPEALRERFDEHYKQQMKDCTVKFRMEL
With B2, in series [2], the Km was found to be 1560 ± 260 µM, the kcat stood at 0.00849 ± 0.000572 s⁻¹ and the catalytic efficiency (kcat/Km) turned out to be 5.44 M⁻¹ s⁻¹.

B3: aryl sulfotransferase IV (AST IV) (Rattus norvegicus) (protein)
chain: MEFSRPPLVHVKGIPLIKYFAETIGPLQNFTAWPDDLLISTYPKSGTTWMSEILDMIYQGGKLEKCGRAPIYARVPFLEFKCPGVPSGLETLEETPAPRLLKTHLPLSLLPQSLLDQKVKVIYIARNAKDVVVSYYNFYNMAKLHPDPGTWDSFLENFMDGEVSYGSWYQHVKEWWELRHTHPVLYLFYEDIKENPKREIKKILEFLGRSLPEETVDSIVHHTSFKKMKENCMTNYTTIPTEIMDHNVSPFMRKGTTGDWKNTFTVAQNERFDAHYAKTMTDCDFKFRCEL
notes: recombinant in E. coli; N-terminal GST fusion printed for the whole-cell work
Take B3: in series [3], the Km came out at 1430 ± 172 µM, the kcat came out at 0.0131 ± 0.000614 s⁻¹ and the specificity constant (kcat/Km) is 9.19 M⁻¹ s⁻¹. Also, in the series “purified protein”, the Km worked out at 2450 ± 500 µM, the kcat worked out at 0.00688 s⁻¹ and the catalytic efficiency (kcat/Km) is 2.81 M⁻¹ s⁻¹.
